Experimental data: article PMC3825537

Target: monomeric photosystem II complex (His-tagged PsbE) (Nicotiana tabacum | Nicotiana tabacum (endogenous in leaves)) (UniProt P69384)
Experiment: native gel or EMSA; BN-PAGE (3-12 % gradient, 205 V, 5 h, 4 °C) of PSII purified by protocol A

monomeric photosystem II complex (His-tagged PsbE) (from UniProt P69384 1-83; P69556 1-344)
stoichiometry N: 2
